Results taken from patent US20240228562A1, “NOVEL LIPOCALIN MUTEINS SPECIFIC FOR CONNECTIVE TISSUE GROWTH FACTOR (CTGF)” (PIERIS PHARMACEUTICALS GMBH, priority 2021, published 2024).
Residue numbers refer to the chain shown, from its start.

T1: CTGF (Homo sapiens, UniProt P29279)
T1 sequence (P29279 27-349): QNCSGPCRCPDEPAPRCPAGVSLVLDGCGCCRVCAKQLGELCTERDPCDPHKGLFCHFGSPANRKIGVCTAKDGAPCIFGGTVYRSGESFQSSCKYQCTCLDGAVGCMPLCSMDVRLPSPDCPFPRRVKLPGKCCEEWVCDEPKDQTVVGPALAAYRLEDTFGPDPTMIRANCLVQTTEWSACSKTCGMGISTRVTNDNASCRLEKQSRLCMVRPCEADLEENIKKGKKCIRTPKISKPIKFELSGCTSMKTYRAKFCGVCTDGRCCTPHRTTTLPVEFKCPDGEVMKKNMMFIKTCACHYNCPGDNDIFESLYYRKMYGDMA

T2: huNOV (Homo sapiens, UniProt P48745)
T2 sequence (P48745 32-357): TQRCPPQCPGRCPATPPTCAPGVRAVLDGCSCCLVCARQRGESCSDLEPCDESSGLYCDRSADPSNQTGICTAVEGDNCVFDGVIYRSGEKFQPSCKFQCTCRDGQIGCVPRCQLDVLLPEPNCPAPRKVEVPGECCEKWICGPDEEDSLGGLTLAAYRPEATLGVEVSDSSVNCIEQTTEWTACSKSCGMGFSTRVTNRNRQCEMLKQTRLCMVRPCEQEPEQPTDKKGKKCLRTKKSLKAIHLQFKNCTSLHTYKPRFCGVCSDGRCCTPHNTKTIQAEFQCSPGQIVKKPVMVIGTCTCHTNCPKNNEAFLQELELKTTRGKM

T3: huWISP-3 (Homo sapiens, UniProt O95389)
T3 sequence (O95389 24-354): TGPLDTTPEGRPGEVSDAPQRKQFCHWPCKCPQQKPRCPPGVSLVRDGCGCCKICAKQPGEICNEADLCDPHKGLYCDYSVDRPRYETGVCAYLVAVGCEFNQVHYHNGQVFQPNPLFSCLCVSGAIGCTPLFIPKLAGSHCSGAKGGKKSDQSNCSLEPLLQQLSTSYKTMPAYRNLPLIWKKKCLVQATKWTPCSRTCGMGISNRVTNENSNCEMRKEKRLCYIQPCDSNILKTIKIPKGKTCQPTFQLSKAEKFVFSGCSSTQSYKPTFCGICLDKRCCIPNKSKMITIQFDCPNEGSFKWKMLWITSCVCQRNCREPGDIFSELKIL

T4: huCYR61 (Homo sapiens, UniProt O00622)
T4 sequence (O00622 25-381): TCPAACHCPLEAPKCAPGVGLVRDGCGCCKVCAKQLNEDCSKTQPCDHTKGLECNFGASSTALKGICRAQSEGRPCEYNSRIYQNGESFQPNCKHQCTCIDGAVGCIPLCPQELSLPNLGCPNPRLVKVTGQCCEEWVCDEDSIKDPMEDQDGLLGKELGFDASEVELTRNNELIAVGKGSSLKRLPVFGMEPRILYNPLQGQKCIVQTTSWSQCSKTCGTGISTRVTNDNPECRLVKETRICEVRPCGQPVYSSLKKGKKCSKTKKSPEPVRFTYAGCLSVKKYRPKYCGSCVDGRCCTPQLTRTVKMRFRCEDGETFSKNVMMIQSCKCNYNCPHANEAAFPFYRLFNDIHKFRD

T5: huWISP-2 (Homo sapiens, UniProt O76076)
T5 sequence (O76076 24-250): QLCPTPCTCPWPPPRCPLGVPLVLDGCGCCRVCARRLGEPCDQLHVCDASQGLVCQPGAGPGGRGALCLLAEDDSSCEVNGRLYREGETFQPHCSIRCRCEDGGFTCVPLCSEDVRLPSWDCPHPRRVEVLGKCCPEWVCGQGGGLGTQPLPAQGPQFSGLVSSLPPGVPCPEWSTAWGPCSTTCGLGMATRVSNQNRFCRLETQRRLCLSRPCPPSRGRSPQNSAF

B1: SEQ ID NO: 23: optimized CTGF-binding hNGAL lipocalin mutein (protein)
chain: QDSTSDLIPAPPLSKVPLQQNFQDNQFQGKWYVVGVAGNAILRPDKQPAKMFATIYELKEDKSYDVTSVRFEAKSCKYTIKTFVPGSQPGEFTSGQIKSAPGQTSTLVRVVSTNYNQHAMVFFKHVSQNREIFVITLYGRTKELTSELKENFIRFSKSLGLPENHIVFPVPIDQCIDG
modifications: lipocalin mutein
B2: SEQ ID NO: 74: fusion protein comprising two CTGF-binding lipocalin muteins (protein)
chain: QDSTSDLIPAPPLSKVPLQQNFQDNQFQGKWYVVGLAGNAILREDKQPAKMFATIYELKEDKSYDVTSVRFEAKSCKYTIKTFVPGSQPGEFTAGYIKSAPGQTSTLVRVVSTNYNQHAMVFFKHVTQNREIFVITLYGRTKELTSELKENFIRFSKSLGLPENHIVFPVPIDQCIDGGGGGSGGGGSGGGGSQDSTSDLIPAPPLSKVPLQQNFQDNQFQGKWYVVGWAGNVKLREDKQPQKMSATIYELKEDKSYDVTEVVFEQKKCHYIIKTFVPGSQPGEFTAGDIKSPPGYTSSLVRVVSTNYNQHAMVFFKKVSQNREFFWITLYGRTKELTSELKENFIRFSKSLGLPENHIVFPVPIDQCIDG
modifications: fusion protein
B3: SEQ ID NO: 9: parent CTGF-binding hNGAL lipocalin mutein (protein)
chain: B1 chain with Q28H, V36L, A40K, P44I, K74R, K77S, S94A, Q96N, I132T
modifications: lipocalin mutein
B4: SEQ ID NO: 15: optimized CTGF-binding hNGAL lipocalin mutein (protein)
chain: B1 chain with V36L, P44E, S94A, Q96Y, S127T
modifications: lipocalin mutein
B5: SEQ ID NO: 25: parent CTGF-binding hNGAL lipocalin mutein (protein)
chain: QDSTSDLIPAPPLSKVPLQQNFQDNQFHGKWYVVGMAGNFRLREDKDPSKMGATIYELKEDKSYNVTQVQFDDKKCLYVIETFVPGSQPGEFTLGAIKSFPGFTSQLVRVVSTNYNQHAMVFFKKVYQNREVFWITLYGRTKELTSELKENFIRFSKSLGLPENHIVFPVPIDQCIDG
modifications: lipocalin mutein
B6: SEQ ID NO: 29: parent CTGF-binding hNGAL lipocalin mutein (protein)
chain: QDSTSDLIPAPPLSKVPLQQNFQDNQFHGKWYVVGWAGNIKLREDKDPFKMSATIYELKEDKSYNVTEVVFEQKKCHYIIKTFVPGSQPGEFTLGDIKSPPGETSSLVRVVSTNYNQHAMVFFKKVFQNREFFWITLYGRTKELTSELKENFIRFSKSLGLPENHIVFPVPIDQCIDG
modifications: lipocalin mutein
B7: SEQ ID NO: 3: parent CTGF-binding hNGAL lipocalin mutein (protein)
chain: QDSTSDLIPAPPLSKVPLQQNFQDNQFHGKWYVVGRAGNNRLREDKDPPKMWATIYELKEDKSYNVTHVHFMTKKCRYIIDTFVPGSQPGEFTLGAIKSGPGMTSPLVRIVSTNYNQHAMVFFKWVNQNREWFTITLYGRTKELTSELKENFIRFSKSLGLPENHIVFPVPIDQCIDG
modifications: lipocalin mutein

Key:
[1] = target: T6, Human CTGF with a human IgG1 Fc Tag (Homo sapiens, UniProt P29279, H83D); assay: SPR epitope analysis (simultaneous binding)
T6 construct: purchased Creative Biomart
Protocol: Surface plasmon resonance (SPR) was used to analyze the epitopes and determine simultaneous binding of different lipocalin muteins. Human CTGF with a human IgG1 Fc Tag was directly immobilized to a CM5 Chip (Creative Biomart, 10 μg/mL in 10 mM sodium acetate pH 4.5) until an immobilization level of 470-630 resonance units was achieved. The reference channel was activated/deactivated. […] As control, single lipocalin muteins were injected and the resulting signal of single and mixtures was compared at the end of the injection. The chip was regenerated with 3 M MgCl2 and Glycine-HCl pH1.5 for each 60 s at a flowrate of 15 μL/min.
“Yes” means simultaneous binding is possible, “no” stands for same or overlapping epitope, “n.t.” stands for not tested.

CTGF = target: T1, CTGF; assay: Specificity ELISA (CCN proteins), human CTGF; type: binding; conditions: coated 1 μg/ml, muteins from 1000 nM
Protocol: (§1) Binding of muteins to closely related proteins of CTGF was tested by an ELISA assay. In detail, a 384-well plate suitable for fluorescence measurements (Greiner FLUOTRAC™ 600, black flat bottom, high-binding) was coated with 20 μl of human CTGF or the other members of the CCN protein family at a concentration of 1 μg/ml in PBS over night at 4° C. After washing with PBS with 0.05% Tween 20, wells were blocked with 100 μl blocking buffer containing 0.1% Tween 20 and 2% BSA (PBS-T/BSA) for 1 h at room temperature. 20 μl of serially diluted muteins starting at 1000 nM were incubated in PBS-T/BSA for 1 h at room temperature (RT).
(§2) The residual supernatants were discarded and 20 μl HRP-labeled anti-NGAL or anti-Strep-Tag antibody was added at a predetermined optimal concentration in PBS-T/BSA and incubated for 1 h at RT. After washing, 20 μl fluorogenic HRP substrate (QuantaBlu, Thermo) was added to each well, and the reaction was allowed to proceed for 2 to 60 minutes. The fluorescence intensity of every well on the plate was read using a fluorescence microplate reader (Tecan). When the signal for human CTGF approached saturation, the cross reactivity to the other proteins was assessed.

huNOV = target: T2, huNOV; assay: Specificity ELISA (CCN proteins), huNOV; type: binding; conditions: coated 1 μg/ml; assessed when human CTGF signal approached saturation
Protocol: as §1, §2

huWISP-3 = target: T3, huWISP-3; assay: Specificity ELISA (CCN proteins), huWISP-3; type: binding; conditions: coated 1 μg/ml; assessed when human CTGF signal approached saturation
Protocol: as §1, §2

huCYR61 = target: T4, huCYR61; assay: Specificity ELISA (CCN proteins), huCYR61; type: binding; conditions: coated 1 μg/ml; assessed when human CTGF signal approached saturation
Protocol: as §1, §2

huWISP-2 = target: T5, huWISP-2; assay: Specificity ELISA (CCN proteins), huWISP-2; type: binding; conditions: coated 1 μg/ml; assessed when human CTGF signal approached saturation
Protocol: as §1, §2

[2] = SPR, mixed and injected simultaneously at 750 nM or 1000 nM

T6 sequence (P29279 with tags, fused parts or gaps H83D): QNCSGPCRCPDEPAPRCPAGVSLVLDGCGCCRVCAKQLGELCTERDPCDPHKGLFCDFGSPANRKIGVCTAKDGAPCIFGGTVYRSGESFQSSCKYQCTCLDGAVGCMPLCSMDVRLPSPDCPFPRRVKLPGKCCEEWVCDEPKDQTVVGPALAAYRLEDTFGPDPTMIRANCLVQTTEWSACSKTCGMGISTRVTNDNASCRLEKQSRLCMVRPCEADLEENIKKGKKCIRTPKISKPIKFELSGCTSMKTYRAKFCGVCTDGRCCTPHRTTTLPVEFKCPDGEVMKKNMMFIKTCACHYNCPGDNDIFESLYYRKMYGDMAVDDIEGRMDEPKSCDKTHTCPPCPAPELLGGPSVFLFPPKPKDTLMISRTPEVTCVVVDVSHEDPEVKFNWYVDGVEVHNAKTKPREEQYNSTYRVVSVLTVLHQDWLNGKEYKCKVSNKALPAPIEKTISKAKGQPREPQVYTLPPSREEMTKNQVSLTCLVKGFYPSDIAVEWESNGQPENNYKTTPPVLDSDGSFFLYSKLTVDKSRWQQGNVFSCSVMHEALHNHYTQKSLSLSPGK

Epitope overlap with anti-CTGF antibody of SEQ ID NOs: 60 and 61 [1] | ELISA binding to HUMAN CTGF (CTGF) | ELISA binding to huNOV (huNOV) | ELISA binding to huWISP-3 (huWISP-3) | ELISA binding to huCYR61 (huCYR61) | ELISA binding to huWISP-2 (huWISP-2) | Simultaneous binding with SEQ ID NO: 7 [1, 2] | Simultaneous binding with SEQ ID NO: 9 [1, 2] | Simultaneous binding with SEQ ID NO: 25 [1, 2] | Simultaneous binding with SEQ ID NO: 29 [1, 2] | Simultaneous binding with SEQ ID NO: 60 and 61 (control antibody) [1, 2] | Simultaneous binding with SEQ ID NO: 3 [1, 2] | Molecule
overlapped | Binding | No binding | No binding | No binding | No binding | – | – | – | – | – | – | B1
– | Binding | No binding | No binding | No binding | No binding | – | – | – | – | – | – | B2
– | Binding | No binding | No binding | No binding | No binding | no | no | yes | yes | no | – | B3
– | Binding | No binding | No binding | No binding | No binding | – | – | – | – | – | – | B4
– | Binding | No binding | No binding | No binding | No binding | yes | yes | no | no | yes | – | B5
– | Binding | No binding | No binding | No binding | No binding | yes | yes | no | no | yes | – | B6
– | Binding | No binding | No binding | No binding | No binding | – | – | – | – | yes | no | B7
